This series can be described thus: soluble on expression in E. coli; label from the status in PepcDB or PDB records.
Regarding “SAVVPASLSGQDVGSFAYLTIKDRIPQILTKVIDTLHRHKSEFFEKHGEEGVEAEKKAISLLSKLRNELQTDKPFIRLVEKFVDTDIWNQYLEYQQSLLNESDGKSRWFYSPWLLVECYIDRRIHEAIIQSPPIDYFDVFKESKEQNFYGSQESIIALCTHLQQLIRTIEDLYENQLKDEFFKLLQISLWGNKCDLSLSGGESSSQNTNVLNSLEDLKPFILLNDMEHLWSLLSNCKKTREKASATRVYIVLDNSGFELVTDLILADFLLSSELATEVHFYGKTIPWFVSDTTIHDFNWLIEQVKHSNHKWMSKCGADWEEYIKMGKWVYHNHIFWTLPHEYCAMPQVAPDLYAELQKAHLILFKGDLNYRKLTGDRKWEFSVPFHQALNGFHPAPLCTIRTLKAEIQVGLQPGQGEQLLASEPSWWTTGKYGIFQYDGPL”, the “soluble on expression in E. coli” value is recorded as “not soluble”. With “MGHHHHHHSHMVALSNALSRVFGSLAGYKFPSFIQKGINALYVKIFKIDLSEFEPLENYRSLNALFTRSLKKERPFDKSPNICIAPCDALITECAFLDNDSALQIKGMPYKAHELVGEINPLSPSFFYANFYLSPKDYHHYHAPCDLEILEARYFAGKLLPVNKPSLHKNNNLFVGNERVTLVAKDIQGNRLYFVAVGALNVGKMRFNFDKNIQTNAKARFTQTYSYNPPIKVKKGDNLGNFEMGSTIVLFIQNTAFKDLKEKNVKFGESIGEFHAN”, the “soluble on expression in E. coli” value was “not soluble”. For the sequence “MGSDKIHHHHHHMKLADIYAHFQEDIFTIERELEEAVQARHDILRKASVHLLKAGGKRIRPVFVLLAGKFGTYDVNVLKHIAVPLELIHMASLVHDDVIDDADLRRGKKTIKSQWDNRIAMYTGDYMFAKAVQTATYFDDPNIHQIISNAINEMCLGEVEQIRDQYNPNQHLRIYFRRIKRKTALLIAVSCQLGALAAKADPAIVQKLYYFGYYVGMSFQITDDVLDFVGTEEQLGKPAGSDLLQGNVTLPALYALHHDMHAKRLIEQVLADRGNNSVHMEEVIAAIVSSGGIDYALSISDLYLKKAMRMLDHLPDDEPKQFLQEIANYIGRRKF”, the “soluble on expression in E. coli” value is recorded as “not soluble”. On to “GPGSMQISPPFCGCLSEMYARSLVKQGAFSCFRSCVRVGSVAIIGGEAHMFKQLYKRDEKLRLYRSLIKGASRFPLRSRRDIVTEEVRSSFRHPLNDSLTNEEVDRKLVLGWERAEAIKTYAQNMYWFHSRDEVSKEMMHHSLERDRQRVREMERCNTVGAAPRKTPEVTEFKSSMYNVHPDYYEKIGQKPLTHTRDIWRARGQYGSDVGGPRQKFFVRRFKALFPQGW”, for which the “soluble on expression in E. coli” value was “not soluble”.

For the sequence “MGSDKIHHHHHHMNQDLLHKYFKGETSVDEEKRILNWVDESEENRKTLQKERMLFDIALFTDSKRKMREKAGAGARIIPMLRWSARIAAAVIVAVSCGFLINEYQYDKLAQLQTVTVPAGQRAQITLADGTKVWLNSESTLSYRSDFGRRDRDVELDGEAYFEVAKNKEIPFYVNTETNQVRVVGTHFNVCAYKGSNEFETTLVEGIVDIYAYDNERPLTRLTKNEFFGSYQGKYKKAVLPSYDYLRWREGLYCFDDSPFSCILTKLEKYYNVKITVENPKVLNYRCTGKFKEQDGVEHILKVIQKDHPFTYSISEEGDSIRIE”, the “soluble on expression in E. coli” value is on record as “not soluble”. For “MAHHHHHHMYSDGERKTVSELQREAEATRKEIIEEAQRLERIKKATAKTQFSIDQLFRFFAREVETEGEKKMLIDLLSSNPPDLHIECVPVLPVVIAIANGRMTNARRIYATDNAFLDDSAFIFLVHTLRFLPQACKIDFLDISGTRVTERGMCFVLEMMIERNTPFTLVAKRLSIPSPEAEAMRARYASLMSALRDKKCCRFIQE” the value was “not soluble”; for “MSLHPHAMPDMGPDMNKVPWMGDEQIAMLVYPGMTVMDLVGPHCMFGSLMGAKIYIVAKSLDPVTSDAGLAIVPTATFGTCPRDLTVLFAPGGTDGTLAAASDAETLAFMADRGARAKYITSVCSGSLILGAAGLLKGYKATSHWSCRDALAGFGAIPTEARVVRDRNRITGAGVTAGLDFGLSMVAELRDQTYAECAQLMSEYDPDPPFNAGSMKTAPAHVRTAMIELVAEFTKKADALAGFPKEGHHHHHH”, “soluble”; for “MQGKIIKSLAGFYYVESEGQVYQTRARGNFRKRGETPYVGDIVDFSAEDNSEGYILAIHPRKNSLVRPPIVNIDQAVVIMSAKEPEFNSNLLDRFLILLEHKAIHPVVYISKMDLLDSPEEIKAIGRQYQAIGYDFVTSLEELLPLLADKITVFMGQTGVGKSTLLNRIAPELALEIGEISDSLGRGRHTTRAVSFYNTHGGKIADTPGFSSLDYDIANAEDLNEAFPELRRLSHECKFRSCTHTHEPKCAVKAALETGELWPVRYEHYLQFLSEIENRRETYKKVIKRK”, “not soluble”. For the sequence “MSRISVENVKHVAHLARLAITDQEAEKFQKQLDAIVTFAEQLNELDTTDVKPTTHVLTMKNVMREDVPEKGLPVEEVLKNAPDHKDNQIRVPAVLE”, the “soluble on expression in E. coli” value is “not soluble”.

For “MASWSHPQFEKGASTSLYKKAGLMDSQRSTLVHWFRKGLRLHDNPALSHIFTAANAAPGRYFVRPIFILDPGILDWMQVGANRWRFLQQTLEDLDNQLRKLNSRLFVVRGKPAEVFPRIFKSWRVEMLTFETDIEPYSVTRDAAVQKLAKAEGVRVETHCSHTIYNPELVIAKNLGKAPITYQKFLGIVEQLKVPKVLGVPEKLKNMPTPPKDEVEQKDSAAYDCPTMKQLVKRPEELGPNKFPGGETEALRRMEESLKDEIWVARFEKPNTAPNSLEPSTTVLSPYLKFGCLSARLFNQKLKEIIKRQPKHSQPPVSLIGQLMWREFYYTVAAAEPNFDRMLGNVYCMQIPWQEHPDHLEAWTHGRTGYPFIDAIMRQLRQEGWIHNLARHAVACFLTRGDLWISWEEGQRVFEQLLLDQDWALNAGNWMWLSASAFFHQYFRVYSPVAFGKKTDPQGHYIRKYVPELSKYPAGCIYEPWKASLVDQRAYGCVLGTDYPHRIVKHEVVHKENIKRMGAAYKVNREVRTGKEEESSFEEKSET”, the “soluble on expression in E. coli” value is recorded as “soluble”. For “SPGSAAKGSELSERIESFVETLKRGGGPRSSEEMARETLGLLRQIITDHRWSNAGELMELIRREGRRMTAAQPSETTVGNMVRRVLKIIREEYGRLHGRTDESDQQESLHKLLTSGGLNEDFSFHYAQLQSNIIEAINELLVELEGTMENIAAQALEHIHSNEVIMTIGFSRTVEAFLKEAARKRKFHVIVAECAPFCQGHEMAVNLSKAGIETTVMTDAAIFAVMSRVNKVIIGTKTILANGALRAVTGTHTLALAAKHHSTPLIVCAPMFKLSPQFPNEEDSFHKFVAPEEVLPFTEGDILEKVSVHCPVFDYVPPELITLFISNIGGNAPSYIYRLMSELYHPDDHVL”, the “soluble on expression in E. coli” value is listed as “soluble”. Regarding “MGSDKIHHHHHHMLEFTKRSLMNKYNINERVLELYERALNDVEKEFKYYDEIREYNQLKVLKAFQEERISESHFTNSSGYGYNDIGRDSLDRVYANIFNTESAFVRPHFVNGTHAIGAALFGNLRPNDTMMSICGMPYDTLHDIIGMDDSKKVGSLREYGVKYKMVDLKDGKVDINTVKEELKKDDSIKLIHIQRSTGYGWRKSLRIAEIAEIIKSIREVNENVIVFVDNCYGEFVEEKEPTDVGADIIAGSLIKNIGGGIATTGGYIAGKEEYVTQATFRVTVPGIGGECGSTFGVMRSLYEGLFMAPHVTIEAVKGAVFCARIMELAGFDVLPKYNDKRTDIIQAIKFNDEKKLIDFIKGIQTASPVDSFVQCEAWDMPGYEDKVIMAAGTFVQGASIELSADAPIREPYIGYLQGGLTFDHAKLGVLIALSKLIM”, the “soluble on expression in E. coli” value is “not soluble”. Under “GTQGKVIKCKAAIAWKTGSPLCIEEIEVSPPKACEVRIQVIATCVCHTDINATDPKKKALFPVVLGHECAGIVESVGPGVTNFKPGDKVIPFFAPQCKRCKLCLSPLTNLCGKLRNFKYPTIDQELMEDRTSRFTCKGRSIYHFMGVSSFSQYTVVSEANLARVDDEANLERVCLIGCGFSSGYGAAINTAKVTPGSTCAVFGLGCVGLSAIIGCKIAGASRIIAIDINGEKFPKAKALGATDCLNPRELDKPVQDVITELTAGGVDYSLDCAGTAQTLKAAVDCTVLGWGSCTVVGAKVDEMTIPTVDVILGRSINGTFFGGWKSVDSVPNLVSDYKNKKFDLDLLVTHALPFESINDAIDLMKEGKSIRTILTF” stands “soluble”; under “MSASFDRYVSFQHCDWEGRSERVMQRLQRHVEAAENPFWAYFAQKRAELRDKQGLDDLRILHNYLPTLRELLEDNGDLETLEMLEDLEANLM”, “not soluble”; under “MMFSLSKELEEYRAKIREYAQKTVREYAKQMDETNDGGDKIVKDLGEMGLLGMKQPTKYGGLGLGEMAFAIATEELGAESGGASHSLHTQQNALQLLVSVGGDSAQEWIEKGIKAKEVYAVALTEPQAGSDLGALQTTAKPDGNELVLNGEKIFTSAASFSTKMVVLARTSGNPGDRQGISLLLIDSKLPGIEIHKLDIMGIRGAGVSYVKFNNVRIPKDSIIGKEGDAYRGALKALMVSRNGYAGIAVGIARGALEEAISRAQSRKQFGKALIEQEWISFNLADAYIKVEAARLLTWRAAQLFDNDYEATTEASMAKYYAAVTATEVTRLALHIFGGHGLNRGSKVERLYRDAKIMEIAEGTNEMQLVAVSRLFQPKK”, “soluble”.

For the sequence “MAHHHHHHMLRGKSGLTASSSLEGGSEFSERIGNTLSSFLSESASLEVIGNELADNIANEIVGSLQNDSASFLQSEFDVKAQLKATAKKVLTEALKAALEPTEKIVASTIKPPRIKEDIYFLLSPVVRSLFNKVEDVLHKPVSDDIWNYESRGSSSEEEDEVDSDEDFLD”, the “soluble on expression in E. coli” value is listed as “soluble”. For “MNEYKKEIKISVRNLVEFVLRTGDIDSSFTGSSRAVEGTRLHKKIQKTQGKEYSPEVFLKTTVEFDDFFLTVEGRADGVINEDGCFIIDEIKTTTAPLELIDEFYNPLHWAQAKCYAYIHALNENLEKIKIRLTYCHLETEEIKYLVSEFDFAELSRFFEELVEKYYVWAKLACDWQVKRDCSIKVLEFPFEKYRKGQRKLAVAVYKTVTEGKKLYVKAPTGIGKTISTLFPAVKAIGEGHASKIFYLTAKTVTGGVAKEAFAKMRQKGLLFKTVTLTAKEKICFMEKAVCKPEKCEYAKGHFDRVNEAIMDILTNEDEIKREVIEEYAKAHRVCPFELALDLTIWADAVICDYNYVFDPRVYLKRFFSDAGGDYIFLVDEAHNLVDRAREMFSAQLSKKSFLELKKAMKEESPKISKTLQKLNTFMLGMKKLCGDNDYFVSKEEQSEIYLLLRRLIGECEEYLTDRAKNGIENEDLLQLYFDALMYVRIAEFYDDRYVTFVEKSDNDVRIKLFCIDPSHLLSEALKRGKAAVFFSATLLPLSYFKEVLGGGPDDYTMCLDSPFEVNNRCLMIADRISTRYQDRGKSCDEVVQCIKSIVCAKKGNYIAFFPSYQYMNMIYELFEKECGDIKLYVQSSSMTEKEREDFLERFKADPQETVLGFCVLGGIFSEGIDLRDDRLIGAIIVGVGLPQICIERDIIRDYYQNKNRLGFEYSYMYPGMNKVMQAAGRVIRSENDKGVILLIDDRFTNPSYLALFPNEWFPYIRVTGNNISEHVKKFWSRHGA” the value was “soluble”; for “RSAEALFEKAVTPSDVGKLNRLVIPKHHAEKHFPLPSSNVSVKGVLLNFEDVNGKVWRFRYSYWNSSQSYVLTKGWSRFVKEKNLRAGDVVSFSRSNGQDQQLYIGWKSRSGSDLDA”, “soluble”.

Regarding “SMSVKKPKRDDSKDLALCSMILTEMETHEDAWPFLLPVNLKLVPGYKKVIKKPMDFSTIREKLSSGQYPNLETFALDVRLVFDNCETFNEDDSDIGRAGHNMRKYFEKKWTDTFKVS”, the “soluble on expression in E. coli” value was “soluble”. For “MSYAYLFKYIIIGDTGVGKSCLLLQFTDKRFQPVHDLTIGVEFGARMVTIDGKQIKLQIWDTAGQESFRSITRSYYRGAAGALLVYDITRRDTFNHLTSWLEDARQHSNSNMVIMLIGNKSDLEARREVKREEGEAFAREHGLVFMETSAKTAANVEEAFIDTAKEIYRKIQEGVFDINNEANGIKLGPQHSPSSPNSPGGNATGGLGGGSGCC” the value was “not soluble”.
